pKd: −log10 of the molar value.

Experiment [1] deals with Hsp72 tracer FITC-Ahx-…. Briefly: fluorescence polarisation. On the technique in general: Polarisation of emitted light reports the rotation of a fluorescent probe.
The target of experiment [2] is DnaJB4 (recombinant, human, full length, wild type) (human) (UniProt Q9UDY4). In words: differential scanning fluorimetry. Background: DSF heats the sample and reads unfolding from a dye or from intrinsic fluorescence.
For experiment [3] the target is unchanged. Briefly: fluorescence polarisation.

By pKd is commonly meant the Kd on a negative log10 scale, so that one unit is a factor of ten. Lower therefore signals a high Kd. “CHIP (recombinant human) (from UniProt Q9UNE7 1-303) (natural protein)” gave a negative logarithm of the Kd (pKd) in experiment [1] of 6.00.

With “DnaJB4 QPD mutant (from UniProt Q9UDY4 1-337) (natural protein)”, in experiment [1], the pKd is 5.69. “Hsc70 C-terminal 10-mer peptide, unlabeled, N-acetylated”: in experiment [2], the Tmapp of DnaJB4 with 100 µM peptide is 59 °C. Moreover, the % tracer displacement in experiment [3] is 67.6%.

These data come from doi:10.1101/2021.10.18.464838.
